Values quoted from earlier work in publication PMC3522611.

Target: EGFR (Homo sapiens) (UniProt P00533)

HB-EGF (from UniProt Q99075)
Kd: 3.8 nM
